The source of these data is patent US20250340646A1 (ELPIS BIOPHARMACEUTICALS, published 2025).

Assay [1] addresses T1, full-length human PD-L1 on K562 cells (human, UniProt Q9NZQ7 19-290).
T1 construct: also called PD-L1/K562; cell surface human PD-L1
In words: FACS, PD-L1/K562 cells. On the procedure: Cells were spun down at 1200 rpm for 5 minutes at 4° C. to remove primary antibodies. Cells were then washed once with 200 μL of full medium per well. […] Samples were spun down at 1200 rpm for 5 minutes at 4° C. and washed twice with 200 μL of 1×PBS per well. Samples were reconstituted in 200 μL of 1×PBS and were read on Attune NxT cytometer.
(§1) The production, the binding, and all of the characterization assays for selected affinity matured scFv clones were performed as described above.
Background: A flow cytometer gives signals particle by particle.

Assay [2] deals with T2, human PD-L1-Fc (human, UniProt Q9NZQ7 19-238).
T2 construct: also called recombinant PD-L1-Fc fusion protein
In words: SPR, PD-L1-Fc captured, scFv analyte. On the procedure:
The assay was run with Biacore T200 control software version 2.0. Anti-human Fc antibody was immobilized on flow cell 1 and 2 of CM5 sensor chip. […] The flow cells were then regenerated with antibody regeneration buffer (GE Healthcare) for 30 seconds at flow rate of 30 μl/min.
as §1
(In SPR one partner is held on a chip, and binding of the other changes the refractive index at the surface.)

In assay [3] the target is T2, human PD-L1-Fc. Description: ELISA, coated PD-L1-Fc, anti-FLAG HRP. Here is the method:
The plate was incubated overnight at 4° C. followed by blocking with 80 μL of superblock per well for 1 hour. […] In between each step, the plate was washed 3 times with 1×PBST in a plate washer. The plate was then developed with 20 μL of TMB substrate for 5 min and stopped by adding 20 μL of 2N sulfuric acid. The plate was read at OD450 nm Biotek plate reader and then plotted in Prism 8.1 software.
as §1
A general note: In an ELISA, binding on a coated surface is turned into a signal by an enzyme label.

Assay [4] concerns the target T2, human PD-L1-Fc. In words: SPR, PD-L1-Fc captured, scFv analyte; exponent sign missing in print, value set to E-03 from the same row's KD x kon.
For assay [5], the target named is T3, recombinant His-tagged human IL-2Rα (human, UniProt P01589 22-213, limits assumed).
T3 construct: also called IL-2Rα-HIS; CD25
T3 sequence (looked up): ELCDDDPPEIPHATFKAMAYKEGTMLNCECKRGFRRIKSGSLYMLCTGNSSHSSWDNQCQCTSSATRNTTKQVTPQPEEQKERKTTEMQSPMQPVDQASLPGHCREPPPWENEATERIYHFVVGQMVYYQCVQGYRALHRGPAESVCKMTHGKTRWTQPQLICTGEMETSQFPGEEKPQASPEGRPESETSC
In words: ELISA, coated His-tagged human IL-2Rα, OD 450 nm. Here is the method:
(§2) For monovalent IL-2 Fc-fusion proteins, recombinant His-tagged human IL-2Rα and IL-2Rβ were added in 25 μL of 1×PBS to wells of 384-well plate and incubated overnight at 4° C. to coat the plates. Plates were washed three times with 0.05% Tween20/1×PBS. Plates were blocked with 100 μL of SuperBlock for 1 hr at RT and then washed 3 times with 0.05% Tween20/1×PBS. IL-2 mutants were diluted in 0.05% Tween 20/1×PBS from 1000 nM to 0 nM and added to plates for 2 hrs at room temperature. Plates were then washed 6 times with 0.05% Tween20/1×PBS. Anti-HisTag-HRP was diluted 1:5000 in 0.05% Tween20/1×PBS and added to plates for 1 hr at RT. Plates were then washed 6 times with 0.05% Tween 20/1×PBS, and TMB was added to develop blue color. Reactions were stopped with 2N […] and light absorbance at 450 nm was read on a BioTek plate reader. Absorbance versus IL-2 concentration is graphed for human IL-2Rα and IL-2Rβ.
A 384 well plate was immobilized with anti-human Fc at final concentration of 2 μg/mL in 1×PBS in total volume of 25 μL per well. The plate was incubated overnight at 4C followed by blocking with 80 μL of superblock per well for 1 hour. […] In between each step, the plate was washed 3 times with 1×PBST in a plate washer. […] The plate was read at OD450 nm Biotek plate reader and the binding correlation was plotted with Prism 8.1 software. […]

Assay [6] addresses T4, recombinant His-tagged human IL-2Rβ (human, UniProt P14784 27-240, limits assumed).
T4 construct: also called IL-2Rβ-HIS; IL-15Rβ-HIS
T4 sequence (looked up): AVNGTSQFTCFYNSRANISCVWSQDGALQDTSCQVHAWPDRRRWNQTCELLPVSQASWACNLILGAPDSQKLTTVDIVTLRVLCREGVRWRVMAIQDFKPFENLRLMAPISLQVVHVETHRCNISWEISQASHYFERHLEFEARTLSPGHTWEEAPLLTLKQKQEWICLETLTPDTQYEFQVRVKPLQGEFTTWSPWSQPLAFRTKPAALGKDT
Description: ELISA, coated His-tagged IL-2Rβ. On the procedure:
as §2, with “IL-2Rβ. […]” for “IL-2Rβ.”

In assay [7] the target is T5, human PD-L1-HIS tagged recombinant protein (human, UniProt Q9NZQ7 19-238).
T5 construct: also called hPD-L1-HIS; PD-L1 HIS tagged protein
In words: SPR, Protein A capture, PD-L1-HIS analyte. On the procedure: (§3) The assay was run with Biacore T200 control software version 2.0. For each cycle, 1 μg/mL of anti-hPD-L1/IL-2 was captured for 60 seconds at flow rate of 10 μL/min on flow cell 2 in 1×HBSP buffer on Protein A sensor chip. […] The flow cells were then regenerated with Glycine pH2 for 60 seconds at flow rate of 30 μL/min. […] The specific binding response unit was derived from subtraction of binding to reference flow cell 1 from antibody captured flow cell 2.

Assay [8] concerns the target biotinylated PD-L1 (Homo sapiens (Human), UniProt Q9NZQ7 19-238, biotinylated; site not stated). Description: ELISA, anti-human Fc capture, biotinylated PD-L1. Here is the method: A 384 well plate was immobilized with anti-human Fc at final concentration of 2 μg/mL in 1×PBS in total volume of 25 μL per well. The plate was incubated overnight at 4C followed by blocking with 80 μL of superblock per well for 1 hour. […] In between each step, the plate was washed 3 times with 1×PBST in a plate washer. The plate was then developed with 25 μL of TMB substrate for 5 min and stopped by adding 25 μL of 2N sulfuric acid. The plate was read at OD450 nm Biotek plate reader and the binding correlation was plotted with Prism 8.1 software. The ELISA binding assays of the antibodies to IL-2Rα and IL-2Rβ receptors were performed as described in Example 6.

Assay [9] addresses T4, recombinant His-tagged human IL-2Rβ. Description: SPR, Protein A capture, IL-2Rβ-HIS analyte. Here is the method:
as §3

Assay [10] addresses T6, PD-L1 biotinylated (PD-1/PD-L1 TR-FRET assay kit, BPS 72038) (Homo sapiens (Human), UniProt Q9NZQ7 19-238, biotinylated; site not stated).
T6 construct: Kit reagent
In words: HTRF competition, competitor PD-1-Eu. Here is the method:
Briefly, 1× Immuno buffer 1 was made. […] For each well in 384-well plate, serial diluted scFvs and regents were added according to manufacturer's recommended volume. Samples were incubated at room temperature for 1.5 hours then the fluorescent intensity was read with Biotek Neo2 plate reader using manufacture's instrument setting for the assay.

In assay [11] the target is PD-L1 on PD-L1 aAPC/CHOK1 cells (Promega J1250). In words: cell-based or functional assay.
In assay [12] the target is T4, recombinant His-tagged human IL-2Rβ. Description: SPR, Protein A capture, IL-2Rβ-HIS analyte, steady state affinity. Here is the method: as §3

B1: 2019EP69-C05 scFv (scFv, V domains shown)
VH: QVQLVQSGAEVKKPGSSVKVSCKASGGTFSSYAISWVRQAPGQGLEWMGGIIPIFGTANYAQKFQGRVTITADESTSTAYMELSSLRSEDTAVYYCARDKGYGSGFRGDYWGQGTLVTVSS
VL: QSVLTQPPSASGTPGQRVTISCSGSYSNIGSNFVNWYQQLPGTAPKLLIHFNNQRPSGVPDRFSGSRSGTSASLAISGLQSEDEADYFCSTWDDSLKGPIFGGGTKLTVL
Consider B1, for which the values for the EC50 in [1] and in assay [3] were 0.221 nM and 0.507 nM, respectively. Also, in assay [2], the affinity, expressed as Kd, was 2.58 nM. The on-rate (kon) – broadly, the rate constant with which the complex forms – in assay [2] is 1.76e+06 M⁻¹ s⁻¹. For the same molecule, the koff – broadly, a measure of how fast the partners let go of each other – in [4] was 0.00454 s⁻¹.

B2: IL-2/anti-PD-L1 scFv Fc EP413/EP326 (bispecific antibody)
chain 1: not shown
chain 2: QVQLVQSGAEVKKPGSSVKVSCKASGGTFSSYAISWVRQAPGQGLEWMGGIIPIFGTANYAQKFQGRVTITADESTSTAYMELSSLRSEDTAVYYCARDKWYGSAWRGDYWGQGTLVTVSSGGGGSGGGGSGGGGSQSVLTQPPSASGTPGQRVTISCSGSYSNIGSNFVNWYQQLPGTAPKLLIHFNNQRPSGVPDRFSGSRSGTSASLAISGLQSEDEADYFCSTWDDSLKGPIFGGGTKLTVLDKTHTCPPCPAPEAAGGPSVFLFPPKPKDTLMISRTPEVTCVVVDVSHEDPEVKFNWYVDGVEVHNAKTKPREEQYNSTYRVVSVLTVLHQDWLNGKEYKCKVSNKALGAPIEKTISKAKGQPREPQVCTLPPSRDELTKNQVSLSCAVKGFYPSDIAVEWESNGQPENNYKTTPPVLDSDGSFKLVSKLTVDKSRWQQGNVFSCSVMHEALHNHYTQKSLSLSPGK
notes: IL2 EP001 carrying K35L/R38D/F42R
As for B2, in assay [5], the binding result is listed as “no binding (tested: LOG(IL-2(nM)) 2 (100 nM))”. The figures for the EC50 in assay [6] and in [8] were 0.545 nM and 0.345 nM, respectively. In addition, the equilibrium dissociation constant (Kd) – broadly, the equilibrium constant for the complex coming apart – in assay [7] amounted to 0.507 nM; in [9], 6.5 nM. Besides, the values for the koff in [7] and in [9] were 0.000247 s⁻¹ and 0.0107 s⁻¹, respectively. Moreover, the kon in [7] is 487000 M⁻¹ s⁻¹; in assay [9], 1.65e+06 M⁻¹ s⁻¹.

B3: IL-2/anti-PD-L1 scFv Fc EP418/EP326 (bispecific antibody)
chain 1: not shown
chain 2: B2 chain 2
notes: IL2 EP340
For the molecule B3, the half-inhibitory concentration (IC50) (in general, the point on the concentration scale where inhibition reaches its midpoint) in [10] worked out at 346 nM. In addition, the dissociation constant (Kd) in assay [7] was 0.547 nM; in assay [12], 75.8 nM. Moreover, in [11], the “NFAT reporter EC50” value turned out to be 9.07 nM. The EC50 (in general, the concentration giving half of the maximal effect) in assay [8] amounted to 0.287 nM.
